This is an account of results in patent US10078082B2, “Detection of free and protein-bound non-human gal-alpha(1-3)-gal epitope” (National University of Ireland, Galway, priority 2012, dated 2018).

Data set [1] can be described thus: scFv-based competitive ELISA, free Gal-α-(1→3)-Gal as standard, immobilized Gal-α-(1→3)-Gal-BSA. In kind it is binding. To be noted: for ED50: free Gal-α-(1→3)-Gal disaccharide standard, plates coated with Gal-α-(1→3)-Gal-BSA 10 μg/ml, FIG. 6. Here is the method: FIG. 6: Standard curves for competitive ELISA given by scFv clones G12, A4, and A11. Plates were coated with immobilized Gal-α-(1→3)-Gal-BSA [10 μg/ml] and incubated with 2.5 μg/ml of the scFvs in the presence of an increasing concentrations of free Gal-α-(1→3)-Gal. The error bars indicate the standard error of the mean of triplicate determinations. Each scFv was evaluated in a competitive ELISA format using free Gal-α-(1,3)-Gal as standard. Microtitre plate wells were coated and blocked as previously described. Standard solutions were prepared in PBS (pH 7.2), ranging in concentration from 2 μg/ml (5.84 μM) to 20 mg/ml (58.4 mM). For the assay, 50 μl of each standard and buffer blank were added to designated wells in triplicate, followed by 50 μl of a sub-saturating concentration (1 μg/ml) of the appropriate scFv, giving a final standard concentration in the assay of 1 μg/ml (2.92 μM) to 10 mg/ml (29.2 mM). The plate was incubated for 1 hour at 37° C. with shaking After washing, bound scFv was detected as previously described. The ratios of the OD for each standard versus the OD given by the blank (B/Bo) were plotted versus standard concentration and standard curve plotted using SigmaPlot (v11, Systat Software Inc). The detection limits were determined as the concentration corresponding to the mean response for zero standard minus three times the standard deviation (SD). Inhibition of scFv by a panel of free sugars. scFv binding to Gal-α-(1→3)-Gal-BSA was determined against a panel of 21 free form sugars; D-Cellibiose, Melibiose, D-Raffinose, Lactulose, Palatinose, β-Gentibiose, D+ Trehalose, D+ Turanose, L− Fructose, D+ Glucose, Sucrose, Galacto-N-biose, 4β-Galactobiose, gal-α(1-3)-gal-β-(1-4)-gal, gal-α(1-3)-gal-β-(1-4)-glc, gal-α(1-3)-gal-β-(1-4)-gal-all-3)-gal, Laminarbiose, β1-4-D-Xylobiose, N-Acetyl-D-glucoseamine (GlcNAc), Galactose, N-Acetyl-D-lactosamine (LacNAc), (sourced from Sigma Aldrich and Dextra, UK). Inhibitions were performed by serial dilutions of free sugars and a sub-saturating concentration scFv added to each dilution and pre-incubated for 60 minutes at 37° C., prior to performing ELISA against Gal-α-(1→3)-Gal-BSA as used throughout. The percent binding of the scFv was plotted against the […], and the 50% effective dose determined (ED50; dose of free sugar causing 50% displacement of the scFv).
(ELISA stands for enzyme-linked immunosorbent assay.)

Data set [2] in a line: Thermal denaturation monitored by far UV CD ellipticity. It counts as physicochemical. As to conditions: for HD / Tm: λ 208. Here is the method: (§1) Two types of experiments were performed: firstly, the near UV circular dichroism (CD) spectra of the scFvs in the absence and presence of 4 mM of both disaccharides have been compared. Secondly, the effect of the disaccharides on the thermal stability of the scFvs has been studied.
Samples were diluted in NaPi (10 mM)-NaCl (150 mM) pH 7.2 and either concentrated by ultrafiltration twice (for small amounts) or exhaustively dialyzed. CD spectra were acquired at 20° C. in a J-810 spectropolarimeter, equipped with a Peltier temperature control system, using a bandwidth of 1 nm, a scan rate of 20 nm/min and a response time of 4 s, collecting data every 0.2 nm and 3 accumulations for each spectrum. Near-UV spectra were registered at around 1.0 mg ml^−1 protein concentration in 1-cm path-length cells while far-UV spectra were recorded in 0.1 cm path-length quartz cells at a protein concentration of around 0.2 mg ml^−1. For all CD spectra, the corresponding buffer baseline was subtracted. […] Ellipticity changes were collected every 0.2° C. and spectra were collected every 10° C. The thermal denaturation profiles were fitted to a sigmoidal function using the equation:—
where Θ(T) represents the ellipticity at temperature T (Kelvin), ΘN the ellipticity of the native protein, n the number of transitions, ΔΘ1 the ellipticity increment of transition i, R the gas constant and Tmi and HDi the temperature at the transition midpoint (melting temperature) and the parameter which describes the cooperativity (slope) of the corresponding transition, respectively.
In the second set of experiments, the thermal stability of the scFvs in the absence and presence of the disaccharides was investigated. With this type of experiment, we were able to get: 1) the far UV CD spectra at increasing temperatures, which gave information on changes in the secondary structure of the proteins upon heating and 2) the profile of the change in ellipticity at a certain wavelength, also with increasing temperatures, that allowed the calculation of the temperature of transition (Tm). Direct comparison of the Tm in the absence and presence of sugar provided information about the effect of the sugar on the scFvs, a thermal stabilisation (i.e. an increase in the Tm in the presence of the sugar) being indicative of interaction.

The nature of data set [3]: NGC microarray specificity analysis (over 50 structures). It counts as binding. To be noted: FIG. 8. The source says: FIG. 8: Comparison of the specificity of selected scFv fragments A4, A11 and G12 against a panel of related NGCs compared directly to the specificity binding pattern of the lectin GS-1-B4, considered as highly specific for α-Gal residues.
The spectacular specificity of the scFvs has also been determined by analysis on an NGC microarray containing over 50 different structures. […] ScFv-based competitive ELISA. Competitive ELISAs were established with each of the three scFvs examined using as standard the free Gal-α-(1→3)-Gal disaccharide within the concentration range 0.001 to 10000 μg/ml (2.93 nM to 29.3 mM). […] A panel of 21 related sugars were tested in the scFv-based competitive assays (Table 1). […] All three scFvs were more reactive to the disaccharide than Gal-α-(1,3)-Gal-containing trisaccharides, as shown by lower inhibitory activity of the trisaccharides and supporting the results obtained in the direct ELISA.

A short description of data set [4]: Near UV circular dichroism interaction study with disaccharides. In kind it is binding. To be noted: pH 7.2, 20° C. Here is the method: The scFvs A4, A11 and G12 were used to check their interaction with Galα(1,3)Galβ1-OMe (Carbosynth) and with melibiose, the latter as negative control.
as §1
Samples were diluted in NaPi (10 mM)-NaCl (150 mM) pH 7.2 and either concentrated by ultrafiltration twice (for small amounts) or exhaustively dialyzed. CD spectra were acquired at 20° C. in a J-810 spectropolarimeter, equipped with a Peltier temperature control system, using a bandwidth of 1 nm, a scan rate of 20 nm/min and a response time of 4 s, collecting data every 0.2 nm and 3 accumulations for each spectrum. Near-UV spectra were registered at around 1.0 mg ml^−1 protein concentration in 1-cm path-length cells while far-UV spectra were recorded in 0.1 cm path-length quartz cells at a protein concentration of around 0.2 mg ml^−1. For all CD spectra, the corresponding buffer baseline was subtracted. Thermal stability was evaluated by measuring ellipticity changes at 208 nm while increasing temperature from 20 to 90° C., with a constant rate of 40° C./h. Ellipticity changes were collected every 0.2° C. and spectra were collected every 10° C. The thermal denaturation profiles were fitted to a sigmoidal function using the equation:—
On the technique in general: CD spectra are sensitive to the conformation of chiral molecules.

The mark [5] stands for this setting: in the presence of 4 mM Galα(1,3)Galβ1-OMe, 208 nm.
Where [6] appears, read: 4 mM melibiose (negative control).

Where “and” joins values, the source holds several entries; their conditions need not be identical. Identical values can stand only once.

B1: scFv A11: chicken anti-Gal-α-(1→3)-Gal single chain antibody fragment, Seq Id No. 4; clone D9 has the same sequence (protein)
scFv: QAALTQPSSVSANPGETVKITCSGGGSYGGSYYYGWYQQKSPGSAPVTVIYSNDNRPSDIPSRFSGSTSGSTSTLTITGVQVDDEAVYYCGTYDSSYVGIFGAGTALTVLGQSSRSSGGGSSGGGGSAVTLDESGGGLQTPGGGLSLVCKASGFTFSSYSMQWVRQTPGKGLEFVAGIGYSDSYTYFGPAVKGRATISRDNGQNTVRLQLNNLRAEDTATYYCARSADTIYGCTHPWCSADNIDAWGHGTEVIVSSTSGQAGQ
modifications: Synthetic protein sequence forscFv-A11 antibody fragment for detecting non-human Gal-alpha(1-3)-Gal
With B1, the ED50 in data set [1] (listed as A11) is 1225 μg/ml and 3.58 mM. Also, the HD in data set [2] (+4 mM Galα(1,3)Galβ1-OMe) is 95 ± 6 kcal/mol; in data set [2] (+4 mM melibiose), 141 ± 7 kcal/mol; in data set [2] (Pure scFv), 134 ± 7 kcal/mol. Besides, the Tm – broadly, the temperature at the midpoint of the melting transition – in data set [2] (+4 mM Galα(1,3)Galβ1-OMe) came out at 69.0 ± 0.2 °C; in data set [2] (+4 mM melibiose), 61.1 ± 0.1 °C; in data set [2] (Pure scFv) it was 61.3 ± 0.1 °C. Also, in data set [2] (setting [5]), the “Change in cooperativity (HD)” value was approximately 38.5 kcal/mol. Further, in data set [2] (setting [5]), the “Stabilisation (increase in Tm)” value is 7.7 °C. The “Specificity for the Gal-α-(1→3)-Gal epitope compared with GS-1-B4” value in data set [3] is “much higher specificity”. The “Change of near UV CD spectrum” value in data set [4] (4 mM Galα(1,3)Galβ1-OMe) and in data set [4] (setting [6]) was “No significant changes were observed” each time.

B2: scFv A4: chicken anti-Gal-α-(1→3)-Gal single chain antibody fragment, Seq Id No. 2 (protein)
scFv: QAALTQPSSVSTNPGGTVKITCSGGNGNYGWYQQKSPGSAPVTVIYSNNKRPSDIPSRFSGSKSGSTATLTITGVQVDDEAVYFCGAYDNTYVGVFGAGTTLTVLGQSSRSSSGGGSSGGGGSAVTLDESGGGLQTPGGGLSLVCKASGFTFSSYSMQWVRQTPGKGLEFVAGIGYSDSYTYFGPAVKGRATISRDNGQNTVRLQLNNLRAEDTATYYCARSADTIYGCTHPWCSADNIDAWGHGTEVIVSSTSGQAGQ
modifications: Synthetic protein sequence for scFv-A4 antibody fragment for detecting non-human Gal-alpha(1-3)-Gal
As for B2, the “ED50, composite standard curve” value in data set [1] (composite curve from 9 independent runs, FIG. 7, listed as A4) was 327 μg/ml and 0.95 mM. For the same molecule, in data set [1] (listed as A4), the ED50 was 311 μg/ml and 0.91 mM. Moreover, the HD in data set [2] (+4 mM Galα(1,3)Galβ1-OMe) was 52 ± 3 kcal/mol; in data set [2] (Pure scFv) it was 57 ± 3 kcal/mol. Besides, the Tm in data set [2] (+4 mM Galα(1,3)Galβ1-OMe) stood at 74.8 ± 0.3 °C; in data set [2] (Pure scFv), 64.6 ± 0.2 °C. Further, the “Change in cooperativity (HD)” value in data set [2] (setting [5]) is approximately 4.7 kcal/mol. In addition, the “Specificity for the Gal-α-(1→3)-Gal epitope compared with GS-1-B4” value in data set [3] is given as “much higher specificity”. The “Change of near UV CD spectrum” value is reported as “molar ellipticity per residue in general decreased” in data set [4] (4 mM Galα(1,3)Galβ1-OMe) and “remained unchanged” in data set [4] (setting [6]).
